# Results from paper PMC5473807, “Distribution and kinetics of the Kv1.3-blocking peptide HsTX1[R14A] in experimental rats” (Scientific Reports, 2017).
# Like-named read-outs stand apart in the source and are kept apart here.
# Experiments:
# [1] = Tolerability in the animal experiments; format: in vivo, rat; conditions: rats, injections of up to 0.1 mg peptide/kg body weight, also anesthetised animals
# [2] = Metabolite analysis by radio-TLC; format: in vivo; conditions: rat, i.v., one rat
# Protocol: (§1) The analysis of [^64Cu]Cu-NOTA-HsTX1[R14A] degradation was analysed in one rat after single intravenous injection. The gas-anaesthetised (8% desflurane, 30% oxygen, air) rat was prepared on a heating bed for the blood sampling. A needle catheter was inserted in a tail vein and fixed for the injection of the radiotracer and supplementation of the withdrawn volume by E-153 (electrolyte infusion solution). A small incision on the right hind limb was made and a small superficial artery was exposed. A thin tube (polyethylene, 0.3 mm inner and 0.6 mm outer diameter) was inserted, moved to the femoral artery and fixed. Arterial blood samples were collected at 1, 3, 5, 10, 20, 30, 120 min p.i of the [^64Cu]Cu-NOTA-HsTX1[R14A]. After the end of experiment the anaesthetised animals were euthanised by infusion of KCl solution. For the differentiation of the activity distribution in the blood compartments (Fig. 3b) were blood samples centrifuged (3 min at 14,000 × g) to obtain the plasma (plasma total and blood cells in the precipitate). One kidney was homogenised with PBS (30% w/v) and then centrifuged as described for the blood samples. Urine was treated in analogy. All the supernatants from blood, kidney and urine samples were mixed with equal volume of MeCN to precipitate the protein fraction. The samples were again centrifuged (3 min at 14,000 × g), resulting in the precipitate the protein bound fraction (plasma proteins) and the supernatants (e.g. plasma water fraction) were analysed by radio-TLC with RP18 aluminium foil, MeCN/0.1% TFA mixed with H2O/0.1% TFA (v/v 1:1). The TLC plates were measured by radioluminography as described above. Aliquots of the whole blood samples and of all supernatants were measured for the ^64Cu activity concentration in a well counter.
# [3] = Distribution in the blood compartments; format: in vivo; conditions: rat, i.v., 0-4 h
# Protocol: as §1
# [4] = Stability of the 64Cu complex against EDTA; format: physicochemical; conditions: 0.1 M aqueous EDTA solution, radio-TLC on iTLC-SA plates
# Protocol: The radiolabelling yield and stability of ^64Cu-labelled peptide conjugate were monitored with radio-TLC (thin layer chromatography). Thin layer chromatograms were scanned by using a thin layer analyser (Rita Star, Raytest, Germany). The purity of the radiolabelled peptide was assayed using analytical RP-HPLC. Radio-HPLC was performed on a Knauer Smartline System fitted with an activity detector (Ramona Star, Raytest, Germany) using an Aqua C18 column (Phenomenex, 4.6 mm × 250 mm, 5 µm, 125 Å) with a gradient eluent of H2O + 0.05% TFA (A) and acetonitrile + 0.05% TFA (B); in 20 min 0–60% of B, 10 min 60–95% of B, 1 mL/min.
# ^64Cu-NOTA-HsTX1[R14A] was prepared by incubating ~1.2–24 nmol (5–100 µg) of NOTA-HsTX1[R14A]/100 µL (1 mg/mL H2O stock solution) with ^64CuCl2 (~35–55 MBq) dissolved in 0.2 mL of 0.1 M 2-(N-morpholino)ethansulfonic acid (MES)/NaOH buffer (pH 6.0) at 37 °C for 30 min. Formation of the ^64Cu^II complex was verified by radio-TLC on iTLC-SA plates (instant TLC medium impregnated with […], Agilent Technology) using H2O + 0.1% HCOOH as mobile phase (^64Cu(HCOO)2, R f = 0.4, ^64Cu-NOTA-peptide, R f = 0). The stability of the ^64Cu^II formed was assessed in the presence of 0.1 M EDTA solution. Radio-TLC was performed with iTLC-SA plates (Agilent Technology) using 0.1 M aqueous EDTA solution [(^64Cu]Cu-NOTA-peptide, R f = 0, ^64Cu-EDTA, R f = 0.9).
# [5] = Blood clearance kinetics, arterial blood and PET; format: in vivo; conditions: whole blood, rat, read-out: blood clearance half-life corrected for the metabolites
# Protocol: The procedures are described in detail elsewhere, [34], [35]. Rats were anesthetised using 9% ± 1% desflurane in 30% oxygen and placed on a heat mat. The animals were kept warm under anesthesia until the end of the scan with a total duration of 4 h. The anesthetised animals were localised in a prone position in the axial direction of the scanner. A needle catheter was installed in a lateral tail vein or subcutaneously in the neck for injection using a syringe pump. PET studies were performed with the dedicated small animal PETs NanoPET/CT (Mediso, Budapest, Hungary) and microPET^(R) P4 (Siemens Medical Solutions, Erlangen, Germany). […] Three-dimensional regions of interest (ROI) were determined for subsequent data analysis. The standardised uptake values (SUV, g/mL) and standardised uptake ratios (SUR, as ratio of the SUVs of the tissue of interest and the blood SUV, derived from a region over the caudal arteria abdominalis and vena cava) were used to quantify the activity uptake and kinetics.
# The analysis of [^64Cu]Cu-NOTA-HsTX1[R14A] degradation was analysed in one rat after single intravenous injection. […] The samples were again centrifuged (3 min at 14,000 × g), resulting in the precipitate the protein bound fraction (plasma proteins) and the supernatants (e.g. plasma water fraction) were analysed by radio-TLC with RP18 aluminium foil, MeCN/0.1% TFA mixed with H2O/0.1% TFA (v/v 1:1). […]
smiles,measurement,setting,value
"CSCC[C@@H]1NC(=O)[C@@H]2CSSC[C@H](NC(=O)[C@H](CO)NC(=O)[C@H](C)NC(=O)COCCOCCNC(=O)CN3CCN(CC(=O)O)CCN(CC(=O)O)CC3)C(=O)N[C@@H](CCCNC(=N)N)C(=O)N[C@@H]([C@@H](C)O)C(=O)N3CCC[C@H]3C(=O)N[C@@H](CCCCN)C(=O)N[C@@H](CC(=O)O)C(=O)N[C@H]3CSSC[C@H](NC(=O)[C@H](CCCCN)NC(=O)[C@H](CCCNC(=N)N)NC(=O)[C@H](CC(N)=O)NC1=O)C(=O)N[C@@H](CCCCN)C(=O)N[C@H]1CSSC[C@H](NC(=O)[C@@H]4CCCN4C(=O)[C@H](CC(=O)O)NC(=O)[C@H](C)NC3=O)C(=O)N[C@@H](C)C(=O)N[C@@H](CCCCN)C(=O)N[C@@H](CCC(=O)O)C(=O)N[C@@H]([C@@H](C)O)C(=O)NCC(=O)N[C@@H](CSSC[C@@H](C(N)=O)NC(=O)[C@H](CCCNC(=N)N)NC(=O)[C@H](CC(N)=O)NC1=O)C(=O)N1CCC[C@H]1C(=O)N[C@@H](Cc1ccc(O)cc1)C(=O)NCC(=O)N[C@@H](CCCCN)C(=O)N2 [[^64Cu]Cu-NOTA-HsTX1[R14A], metal not drawn]",toxic effects,[1],did not show toxic effects
same,plasma activity still present as original compound,"[2]; arterial blood plasma, after 4 h",85%
same,metabolic stability in arterial blood plasma,[2]; first 2 h,without detectable radioactive metabolic products
same,original compound in the kidneys,"[2]; kidney extract, 4 h",31%
same,original compound in the urine,"[2]; urine, 4 h",15%
same,fraction bound to plasma proteins,"[3]; MeCN precipitate, % of total blood activity",5 ± 3%
same,fraction in blood plasma,"[3]; centrifugation 3 min at 14,000 x g",82 ± 4 % of the whole blood ^64Cu activity
same,fraction in plasma water,"[3]; supernatant after MeCN precipitation, % of total blood activity",75 ± 3%
same,time for which the 64Cu(II) complex is stable with EDTA,[4],at least 24 h
same,half-life,"[5]; iv, i.v.",37 min
same,half-life,"[5]; sc, s.c.",51 min
